In test [1] the target is T1, rat ANP receptor (NPR-A) (rat, UniProt P18910 29-1057).
T1 sequence (looked up): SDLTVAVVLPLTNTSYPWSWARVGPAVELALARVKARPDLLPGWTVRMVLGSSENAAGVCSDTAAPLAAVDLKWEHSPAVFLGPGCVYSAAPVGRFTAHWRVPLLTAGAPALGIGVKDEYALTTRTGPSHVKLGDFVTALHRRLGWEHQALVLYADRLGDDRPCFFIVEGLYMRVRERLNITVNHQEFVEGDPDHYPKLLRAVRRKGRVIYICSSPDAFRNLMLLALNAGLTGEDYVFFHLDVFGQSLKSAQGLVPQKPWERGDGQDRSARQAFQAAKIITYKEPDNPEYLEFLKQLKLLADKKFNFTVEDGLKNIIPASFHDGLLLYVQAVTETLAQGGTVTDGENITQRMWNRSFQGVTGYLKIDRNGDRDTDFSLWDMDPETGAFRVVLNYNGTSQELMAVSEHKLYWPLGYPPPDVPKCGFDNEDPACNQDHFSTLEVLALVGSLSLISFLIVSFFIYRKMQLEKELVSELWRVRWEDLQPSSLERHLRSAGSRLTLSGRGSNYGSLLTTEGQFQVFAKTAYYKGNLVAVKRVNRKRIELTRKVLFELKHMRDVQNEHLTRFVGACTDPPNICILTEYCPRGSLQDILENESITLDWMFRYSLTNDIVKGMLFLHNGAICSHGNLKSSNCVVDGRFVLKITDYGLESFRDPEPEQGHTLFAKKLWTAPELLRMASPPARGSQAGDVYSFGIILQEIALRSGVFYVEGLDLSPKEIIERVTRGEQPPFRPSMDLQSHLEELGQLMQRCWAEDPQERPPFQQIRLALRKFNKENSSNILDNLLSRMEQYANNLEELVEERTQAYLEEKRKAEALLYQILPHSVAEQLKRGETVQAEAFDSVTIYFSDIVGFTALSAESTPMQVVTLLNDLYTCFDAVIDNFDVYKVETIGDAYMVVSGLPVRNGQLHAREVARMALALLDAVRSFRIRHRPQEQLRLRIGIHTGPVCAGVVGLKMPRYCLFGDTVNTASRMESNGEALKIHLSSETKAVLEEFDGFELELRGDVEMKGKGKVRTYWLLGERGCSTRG
The test is described as follows: cell-based or functional assay.

The target in test [2] is T2, human NPRA (hNPRA) (human, UniProt P16066 33-1061).
T2 sequence (looked up): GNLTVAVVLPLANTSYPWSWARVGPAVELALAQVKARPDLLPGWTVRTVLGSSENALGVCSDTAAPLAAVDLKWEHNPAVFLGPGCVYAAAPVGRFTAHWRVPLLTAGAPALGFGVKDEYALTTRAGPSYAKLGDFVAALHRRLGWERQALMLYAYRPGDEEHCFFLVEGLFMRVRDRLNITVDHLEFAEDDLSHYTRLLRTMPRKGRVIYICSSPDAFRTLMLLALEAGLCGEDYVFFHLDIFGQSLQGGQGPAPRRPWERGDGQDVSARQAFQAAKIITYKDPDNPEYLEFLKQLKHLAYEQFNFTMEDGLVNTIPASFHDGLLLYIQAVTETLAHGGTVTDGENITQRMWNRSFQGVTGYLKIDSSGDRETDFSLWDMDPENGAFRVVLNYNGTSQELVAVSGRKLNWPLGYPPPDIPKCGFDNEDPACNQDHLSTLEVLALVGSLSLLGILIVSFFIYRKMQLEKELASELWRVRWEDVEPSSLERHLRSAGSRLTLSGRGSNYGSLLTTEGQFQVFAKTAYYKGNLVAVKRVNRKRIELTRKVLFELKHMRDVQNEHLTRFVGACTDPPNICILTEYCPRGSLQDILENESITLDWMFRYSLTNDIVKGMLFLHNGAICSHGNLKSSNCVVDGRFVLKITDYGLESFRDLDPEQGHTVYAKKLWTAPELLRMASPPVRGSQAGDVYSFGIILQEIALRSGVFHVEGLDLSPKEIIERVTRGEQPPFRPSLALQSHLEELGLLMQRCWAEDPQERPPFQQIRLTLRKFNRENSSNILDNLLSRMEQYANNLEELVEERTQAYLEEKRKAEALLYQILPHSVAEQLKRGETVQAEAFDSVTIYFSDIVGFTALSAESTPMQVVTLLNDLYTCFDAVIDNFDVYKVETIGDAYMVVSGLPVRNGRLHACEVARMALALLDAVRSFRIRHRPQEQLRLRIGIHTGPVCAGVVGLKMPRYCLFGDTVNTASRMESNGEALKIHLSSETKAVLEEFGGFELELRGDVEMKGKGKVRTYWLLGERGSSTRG
Kind of test: cell-based or functional assay.

B1: TPP-5661 (antibody)
heavy: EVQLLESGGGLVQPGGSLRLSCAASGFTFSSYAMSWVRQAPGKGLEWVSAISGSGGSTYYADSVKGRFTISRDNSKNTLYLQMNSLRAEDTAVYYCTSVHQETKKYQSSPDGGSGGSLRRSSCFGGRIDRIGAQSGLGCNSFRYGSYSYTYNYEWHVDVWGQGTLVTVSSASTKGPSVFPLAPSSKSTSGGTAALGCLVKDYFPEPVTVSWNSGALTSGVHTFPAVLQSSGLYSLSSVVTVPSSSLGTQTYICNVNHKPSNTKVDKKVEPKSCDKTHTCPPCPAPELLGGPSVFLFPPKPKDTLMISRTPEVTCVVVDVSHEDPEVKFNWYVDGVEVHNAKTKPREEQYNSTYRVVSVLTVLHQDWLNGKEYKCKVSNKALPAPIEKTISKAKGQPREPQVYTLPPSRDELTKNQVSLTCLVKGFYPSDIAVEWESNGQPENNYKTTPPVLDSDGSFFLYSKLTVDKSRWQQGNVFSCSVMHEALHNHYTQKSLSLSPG
light: QSVLTQPPSVSGAPGQRVTISCTGSSSNIGAGYDVHWYQQLPGTAPKLLIYGNSNRPSGVPDRFSGSKSGTSASLAITGLQAEDEADYYCQSYDSSLSGVVFGGGTKLTVLGQPKAAPSVTLFPPSSEELQANKATLVCLISDFYPGAVTVAWKADSSPVKAGVETTTPSKQSNNKYAASSYLSLTPEQWKSHRSYSCQVTHEGSTVEKTVAPTECS
Take B1: the “EC50, fluorescence signal of rat NPR-A cGMP reporter CHO cell line (GCaMP6/CNGA2)” value in test [1] is 17 nM. Further, in test [2], the “log EC50, cGMP quantification assay, isolated compound sample (ics) on stable hNPRA-CHO k1 cells” value was -8.8 log EC50; the “log EC50, cGMP quantification assay, purified compound sample (pcs) on stable hNPRA-CHO k1 cells” value was -9.2 log EC50; the “log EC50, cGMP quantification assay, purified compound sample (pcs) on transient hNPRA-HEK293 cells” value was -9 log EC50.

The values are drawn from patent US20210147504A1 (Bayer, published 2021).
